Data on two substances can be found in publication PMC9198058.

In assay [1] the target is Nα-fluoresceinated hirugen ([F]-hirugen). Description: other fluorescence titration.
In assay [2] the target is Catalytically inactive recombinant S195A thrombin mutant (UniProt P00734). In words: other fluorescence titration.

In turn, “Catalytically inactive recombinant S195A thrombin mutant (from UniProt P00734 44-622) (enzyme)” had a Kd in assay [1] of 30 nM.

On to Hirugen (54…*LQ65) (peptide), for which, in assay [2], the increase of [F]-hirugen fluorescence on displacement is 65%.
